Assay results: patent US20260258115A1 (MAPP BIOPHARMACEUTICAL, published 2026)

Legend:
[1] = molecular target: RSV prefusion F (preF), DS-Cav1 (Respiratory Syncytial Virus, UniProt P03420 26-513); assay: BLI, IgG on anti-human IgG sensor, 100 nM antigen, 1:1 fit
[2] = molecular target: RSV postfusion F (postF), F ΔFP (Respiratory Syncytial Virus, UniProt P03420 26-513); assay: as above
[3] = molecular target: RSV F on RSV-A2 virus (Respiratory Syncytial Virus (RSV-A2), UniProt P03420 26-574); assay: cell-based or functional assay
[4] = molecular target: T1, RSV postfusion F (postF), subtype A (respiratory syncytial virus subtype A, UniProt P03420 26-513); assay: BLI, IgG
T1 construct: also called Postfusion subtype A; F deltaFP

| Binder | Kd [1] | Kd [2] | Neutralization IC50 (RSV subtype A) [3] | Kd [4] |
| --- | --- | --- | --- | --- |
| ADI-41531 (antibody, V domains shown, also called Ab 803; Antibody Number 803) VH: EVQLLESGGDLVQPGGSLRLSCAASGFTFFSYALNWVRRTPGKGLEWVSGISGSGGSTYYADSVKGRFTISRDNSKSTLYLQMNSLKVDDTAVYFCAKDFQHDYGDPYRSYYFDHWGQGTLVTVSS VL: DIQLTQSPSSLAASVGDRVTITCQASRDIRKSLNWYQVKPGKAPKLLISDASYLETGVPPRFSGSGFGTHFTFTISSLQPEDIATYYCQQYDNLPPPTFGGGTKVDIK | 2.08 nM | 0.377 nM | > 25 µg/mL | – |
| ADI-41535 (antibody, V domains shown) VH: QVTLKESGPALVKPTQTLTLTCTFSGFSLSTSRMCVSWIRQSPGKALEWLARIDWDDDKFFSTSLKTRLTISKDTSRNQVVLTMTNMDPVDTATYYCARTTVYASGGYYLYYFDYWGQGTLVTVSS VL: DIQLTQSPSSLPASVGDRVTITCRASQRIASYLNWYQQKPGKAPKVLIYAASNLQSGVPSRFSGSGSGTDFTLTINSLQPEDFATYYCQQSYTTPWTFGQGTKVEIK | 1.93 nM | 0.476 nM | > 25 µg/mL | – |
| ADI-24808 (antibody, V domains shown, full-length IgG) VH: not shown VL: QPVLTQPPSASGSPGQSVTISCTGTSSDVGGYNYVSWYQQHPGKAPKLMIYEVSKRPSGVPDRFSGSKSGNTASLTVSGLQAEDEADYYCSSYAGSNNVVFGGGTKLTVL | – | – | – | 10.8 nM |
| ADI-24851 (antibody, V domains shown, full-length IgG) VH: not shown VL: QSVLIQPPSASGSPGQSVTISCTGTSSDVGGYNYVSWYQQHPGKAPKLMIYEVSKRPSGVPDRFSGSKSGNTASLTVSGLQAEDEADYYCSSYAGSNNVVFGGGTKLTVL | – | – | – | 20.9 nM |
| ADI-41533 (antibody, V domains shown) VH: QVQLVESGGGVVQPGRSLRLSCAASGFTFSSYAMHWVRQAPGKGLEWLAVISFDGSSEFYGDSVRGRFTISRDNSKNTLYLRVNSLRAEDTALYYCARRSLKYSMYNNDAFDVWGQGTTVTVSS VL: QPVLTQPPSVSVSPGQTASITCSGDKLGNKFTFWYQQKSGQSPVLVIYQESQRPSGIPERFSGSNSGNTATLTIRGAQAMDEADYYCQAWDSSTAFFGGGTKLTVL | 1.47 nM | 0.423 nM | > 25 µg/mL | – |
| ADI-41547 (antibody, V domains shown, also called Ab 819; Antibody Number 819) VH: QVQLVQSGAEVKKPGSSVKVSCKASGGSFSSNTINWVRQAPGQGLEWMGGIIPVFETPNYAQKFQGRVSFTADESTRTAYMELSSLRSEDTAVYFCARQGMSYYDTNGNYYVGWFDTWGQGTLVTVSS VL: EIVLTQSPGTLSLSPGERATLSCRASQSLNNNYLAWYQRKPGQAPRLLIYGAGAFSRATGIPDRFSGSGSGTDFTLTISRLEPEDFALYYCQQYGSSPLTFGQGTRLEIK | 3.19 nM | 1.08 nM | 0.05 µg/mL | – |
| ADI-41532 (antibody, V domains shown) VH: QVQLVQSGAEVKKPGESLKISCKGSGYSFTSSWIGWVRQMPGKGLEWMGIIYPGDSDTRYSPSIQGRVTISADKSITTAYLQWSSLKASDTATYYCAKFGGYADAYFYHGMDVWGQGTTVTVSS VL: not shown | 1.92 nM | 0.392 nM | > 25 µg/mL | – |
| ADI-41540 (antibody, V domains shown) VH: QVQLQQWGAGLLKPSETLSLTCGVYGGSFTGYQWSWIRQSPGKGLEWIGDIDHGGNTNYRPSLKSRIITSVNMSKKEFSLKLASVTAADTAVYYCARGVGFLEFSGGPTGRRRNWFDSWGQGTLVTVSS VL: DIQLTQSPGTLSLSPGEGATLSCRASQSVGGSYLAWYQQRPGQAPRLLIYGASNRAADSPDRFSGSGSATDFTLTISRLEPEDFAVYYCQQYGSSPWTFGQGTKVEIK | 3.54 nM | 0.686 nM | > 25 µg/mL | – |
| ADI-41536 (antibody, V domains shown, also called Ab 808; Antibody Number 808) VH: EVQLVESGAGLLKPSETLSLTCVVYGGSFSGYYWSWIRQPPGKGLEWVGDINHSTTTNYNPSLESRITISIDTSKNQFSLNLSSVTAADSAVYYCARGPKECTSSSCDRFGVDYFYYGMDVWGRGTTVTVSS VL: QSVLTQPPSVSGAPGQRVTISCTGSSANIGAGYDVHWYQQFPGTAPKLLIFGNSNRPSGVPDRFSGSKSGTSASLAITGLQAEDEADYYCQSYDGTLGGWVFGGGTQLTVL | 3.05 nM | 0.476 nM | > 25 µg/mL | – |
| ADI-41541 (antibody, V domains shown, also called Ab 813; Antibody Number 813) VH: QITLKESGPTLVKPTQTLTLTCTFSGFSLSSSGVGVGWIRQPPGKALEWLALIYWDDDKRYSPSLKSRLTITKDTSKNQVVLTMTNMDPVDTATYYCAHRGPYYYDMSGYYYEAFDIWGQGTTVTVSS VL: SYELMQPPSVSVAPGQTARITCGGNNIGSKGVHWYQQKPGQAPVLVVYDDNDRPSGIPERFSGSNSGNTATLTISRVEAGDEADYYCQVWDSSSDHHYVFGTGTKVTVL | 2.47 nM | 0.776 nM | > 25 µg/mL | – |
| ADI-41538 (antibody, V domains shown, also called Ab 810; Antibody Number 810) VH: EVQLVESGGGLVKPGGSLRLSCAASGFTLSTYGVNWVRQAPGKGLEWVSSISSSGNNIHYADSVKGRFTVFRDNAKHSMYLQMNSLRAEDTAVYYCARSLDYSNYYYYYGLDVWGQGTTVTVSS VL: not shown | 3.44 nM | 0.587 nM | > 25 µg/mL | – |
| ADI-41545 (antibody, V domains shown, also called Ab 817; Antibody Number 817) VH: QVQLVESGPGLVKPSETLSLTCTVSGGSISRYYWSWIRQSPGKGLEWIGYIYHSVITNYNPSLKSRVTISIDMSKNQFSLKLSSVTAADTAVYYCASRPLINGYGPDNYFDYWGQGTLVTVSS VL: SYVLTQPPSVSVAPGQTARITCGGNNIGSKSVHWYQRKPGQAPVLVVYDDSDRPSGIPERFSGSNSGNTATLTIIRVEAGDEADYYCQVWDNSSDHPVFGGGTKLTVL | 1.36 nM | 0.825 nM | > 25 µg/mL | – |
| ADI-41537 (antibody, V domains shown) VH: EVQLLESGGGLVQPGGSLRLSCAASEFTFSRYPMSWVRQAPGKGLEWVSGISVSGDSTYYADSVKGRLTISRDNSKNTLYLQMNSLRAEDTAVYYCAIDHYDTSGYYGMDVWGQGTTVTVSS VL: DIRLTQSPLSLPVTPGEPASISCRSSRSLLRSNGYNYLDWYLQKPGQSPQLLIYLGSNRASGVPDRFSGSGSGTDFTLKISRVEAEDVGVYYCMQALQSSYTFGQGTKLEIK | 2.58 nM | 0.488 nM | > 25 µg/mL | – |
| ADI-41539 (antibody, V domains shown) VH: QVQLVESGAEVKKPGASVKVSCKASGYNFIDYGISWVRQAPGQGLEWVGWISAYNGNTNYAQKLQGRVTMTTDTSTNTAYMELRSLRSDDTALYYCARDSSSLHPTYYYYYPMDVWGQGTTVTVSS VL: not shown | 3.38 nM | 0.615 nM | 0.18 µg/mL | – |
| ADI-41534 (antibody, V domains shown, also called Ab 806; Antibody Number 806) VH: QVQLVQSGGGVVQPGRSLRLSCAASGFTFSNYAMHWVRQAPGKGLEWVTLISYDGSAQDYADSVKGRITISRDNSKNTLYLQMSSLRPEDTAVYYCARYYCTNDVCSSSALDIWGQGTTVTVSS VL: SYELIQPPSVSVSPGQTASITCSGDKLGNKFTCWYQQKPGQSPVLVIYQDSKRPSGIPERFSGSNSGNTATLTISGTQAMDEADYYCQAWDSSTVVFGGRTKLTVL | 3.31 nM | 0.472 nM | > 25 µg/mL | – |
| ADI-24818 (antibody, V domains shown, full-length IgG; also called Ab 380) VH: not shown VL: QPVLTQPASVSGSPGQSITISCTGTSSDVGGYNYVSWYQQHPGKAPKLMIYDVSNRPSGVSNRFSGSKSGNTASLTISGLQAEDEADYYCSSYTSSSTLVFGGGTQLTVL | – | – | – | 6.47 nM |
| ADI-41543 (antibody, V domains shown) VH: QVQLVQSGAEVKKPGASVRVSCKASGYTLTGYYIHWLRQAPGQGLEWVGRINPNTGETSYSQKFQGRVIMTRDTSVSTAYVDLSRLRSRDTAVYFCARSDVMITVTAEGDFSYYYYRFDVWGQGTTVTVSS VL: DIVMTQTPLSLPVTPGEPASISCRSSQSLLHSNGHNYLDWYLQKPGQSPQLLIYLGSIRASGVSDRFSGSGSGTDFTLKISRVEAEDVGIYYCMQALQTPHFGGGTKVEIK | 2.9 nM | 0.796 nM | > 25 µg/mL | – |
| ADI-41551 (antibody, V domains shown, also called Ab 823; Antibody Number 823) VH: QVQLQESGGGVVQPGGSLRLSCAASGFTFSRHWMHWVRQVPGKGLVWVSRINSDESTIDYADSVKGRFTISRDNAKNTLYLQMNSLRAEDTAVYYCVRDMVAVPGTTGGDYWGQGTLVTVSS VL: SYELTQPPSVSVSPGQTADITCSGDKLGDKYACWYQQRAGQSPILVLYQDTRRPSGIPERFSGSNSGDTATLTISGTQAMDEADYYCQAWDSSTAWVFGGGTKLTVL | 13 nM | 23.8 nM | > 25 µg/mL | – |
| ADI-41549 (antibody, V domains shown, also called Ab 821; Antibody Number 821) VH: EVQLLESGGGVVQPGGSLRLSCAASGFTFSGYGMHWVRQAPGKGLEWVAFIQYNGSNKYYADSVKGRFTISRDNSKNTLYVQLNSLRAEDTAVYYCATDILVVPAATPLISYYFGMDVWGQGTTVTVSS VL: QSALTQPASVSGSPGQSITISCTGTSSDVGGYNYVSWYQQYPGKAPKLMIYEVTNRPSGVSNRFSGSKSGNTASLTISGLQAEDEADYYCCSYTSTNTRVFGTGTKVTVL | 0.408 nM | 1.56 nM | > 25 µg/mL | – |
| ADI-41548 (antibody, V domains shown, also called Ab 820; Antibody Number 820) VH: QVQLQQWGPGLVKPSETLSLTCTVSGASITSHYWSWLRQPAGKGLEWIGRFYPSGTTEKTPSLKSRVTLSVDTSKNHFSLKLTSVTAADTAVYYCARDSYDDIAGSYEYYFADWGQGTLVTVSS VL: EIVLTQSPATLSVSPGERATLSCRASQSVSSNLAWYQQKPGQAPRLLIYDISTRATGVPARFSGSGSGTEFTLTITSLQSEDFTVYYCQQYNNWPPTFGQGTKLEIK | 2.56 nM | 1.45 nM | > 25 µg/mL | – |
| ADI-19485 (antibody, V domains shown, full-length IgG) VH: QVQLQESGPGLVKPSQTLSLSCTVSGGSISSTNYYWTWIRQHPGKGLEWIGFIYNRGSTYYNPSLTSRVTISVDTSKNQFSLKLTSVTAADTAVYYCARAPYYYDRNGYYTAFDIWGQGTTVTVSS VL: EIVLTQSPATLSVSPGERATLSCRASQSVSSNLAWYQQKPGQAPRLLIYDASTRATDIPARFSGGGSGTEFTLTISSLQSEDFAVYYCQQYNNWPRTFGLGTKVDIK | – | – | – | 0.251 nM |
